T1: FcγRIIb extracellular domain with C-terminal His tag (human, UniProt P31994 43-217)
T1 construct: extracellular domain; also called 2b; FcgRIIb; not shown: His tag at the C terminus
T1 sequence (looked up): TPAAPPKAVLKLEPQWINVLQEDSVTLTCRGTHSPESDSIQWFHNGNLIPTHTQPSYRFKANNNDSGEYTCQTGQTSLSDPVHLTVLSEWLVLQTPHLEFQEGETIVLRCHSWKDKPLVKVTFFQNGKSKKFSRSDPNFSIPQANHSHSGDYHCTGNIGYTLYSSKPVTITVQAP


What was measured:
[1] = target: T2, FcγRIIIa extracellular domain with C-terminal His tag (human, UniProt P08637 17-208); experiment: SPR (Biacore), relative binding, GpH7-A5/GpH7-B3/GpL16-k0 = 100
T2 construct: extracellular domain; also called 3a; FcgRIIIa; not shown: His tag at the C terminus
T2 sequence (P08637 17-208): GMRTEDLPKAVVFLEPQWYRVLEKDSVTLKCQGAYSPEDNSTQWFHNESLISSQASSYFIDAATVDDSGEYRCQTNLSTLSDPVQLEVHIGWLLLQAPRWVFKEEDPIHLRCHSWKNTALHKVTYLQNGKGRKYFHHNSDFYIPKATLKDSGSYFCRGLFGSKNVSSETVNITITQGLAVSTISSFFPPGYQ
Experimental: (§1) Analysis of interaction between objective antibody and the FcγR was carried out using Biacore T100 (GE Healthcare). HBS-EP+ (GE Healthcare) was used as the running buffer, and the measurement temperature was set to 25° C. Chips produced by immobilizing the antigen peptide by the amine coupling method to a Series S Sencor Chip CM5 (GE Healthcare), or alternatively, chips produced by allowing preliminarily biotinylated antigen peptides to interact with and immobilize onto a Series S Sensor Chip SA (certified) (GE Healthcare) were used. Antibodies of interest were captured onto an antigen peptide-immobilized chip, and allowed to interact to each FcγR diluted with running buffer. To regenerate and repeatedly use the chip, the antibodies captured on the chip were washed off by reacting 10 mM glycine-HCl, pH 1.5.
(§2) The FcγR-binding activity of each antibody was assessed primarily using as an indicator the FcγR-binding activity and dissociation constant for FcγR.

[2] = target: T1, FcγRIIb extracellular domain with …; experiment: as above
Experimental: as §1, §2

Row | Binder | He/Con_3a [1] | He/Con_2b [2]
1 | GpH7-A5/GpH7-B3 variant D265_15Y/GpL16-k0 (antibody, human IgG1, kappa, He Ab: mutation in the GpH7-B3 H chain only; also called He Ab) heavy 1: not shown heavy 2: not shown light: DIVMTQSPLSLPVTPGEPASISCQASESLVHSNRNTYLHWYLQKPGQSPQLLIYKVSNRFSGVPDRFSGSGSGTDFTLKISRVEAEDVGVYYCSQNTHVPPTFGQGTKVEIERTVAAPSVFIFPPSDEQLKSGTASVVCLLNNFYPREAKVQWKVDNALQSGNSQESVTEQDSKDSTYSLSSTLTLSKADYEKHKVYACEVTHQGLSSPVTKSFNRGEC | -1.7 % of control | 0.6 % of control
2 | GpH7-A5/GpH7-B3 variant L328_02A/GpL16-k0 (antibody, human IgG1, kappa, He Ab: mutation in the GpH7-B3 H chain only; also called He Ab) heavy 1: not shown heavy 2: not shown light: DIVMTQSPLSLPVTPGEPASISCQASESLVHSNRNTYLHWYLQKPGQSPQLLIYKVSNRFSGVPDRFSGSGSGTDFTLKISRVEAEDVGVYYCSQNTHVPPTFGQGTKVEIERTVAAPSVFIFPPSDEQLKSGTASVVCLLNNFYPREAKVQWKVDNALQSGNSQESVTEQDSKDSTYSLSSTLTLSKADYEKHKVYACEVTHQGLSSPVTKSFNRGEC | 79.1 % of control | 144 % of control
3 | GpH7-A5/GpH7-B3 variant L328_10E/GpL16-k0 (antibody, human IgG1, kappa, He Ab: mutation in the GpH7-B3 H chain only; also called He Ab) heavy 1: not shown heavy 2: not shown light: DIVMTQSPLSLPVTPGEPASISCQASESLVHSNRNTYLHWYLQKPGQSPQLLIYKVSNRFSGVPDRFSGSGSGTDFTLKISRVEAEDVGVYYCSQNTHVPPTFGQGTKVEIERTVAAPSVFIFPPSDEQLKSGTASVVCLLNNFYPREAKVQWKVDNALQSGNSQESVTEQDSKDSTYSLSSTLTLSKADYEKHKVYACEVTHQGLSSPVTKSFNRGEC | 53.4 % of control | 172 % of control
4 | GpH7-A5/GpH7-B3 variant L328_07I/GpL16-k0 (antibody, human IgG1, kappa, He Ab: mutation in the GpH7-B3 H chain only; also called He Ab) heavy 1: not shown heavy 2: not shown light: DIVMTQSPLSLPVTPGEPASISCQASESLVHSNRNTYLHWYLQKPGQSPQLLIYKVSNRFSGVPDRFSGSGSGTDFTLKISRVEAEDVGVYYCSQNTHVPPTFGQGTKVEIERTVAAPSVFIFPPSDEQLKSGTASVVCLLNNFYPREAKVQWKVDNALQSGNSQESVTEQDSKDSTYSLSSTLTLSKADYEKHKVYACEVTHQGLSSPVTKSFNRGEC | 84 % of control | 160 % of control
5 | GpH7-A5/GpH7-B3 variant I332_04F/GpL16-k0 (antibody, human IgG1, kappa, He Ab: mutation in the GpH7-B3 H chain only; also called He Ab) heavy 1: not shown heavy 2: not shown light: DIVMTQSPLSLPVTPGEPASISCQASESLVHSNRNTYLHWYLQKPGQSPQLLIYKVSNRFSGVPDRFSGSGSGTDFTLKISRVEAEDVGVYYCSQNTHVPPTFGQGTKVEIERTVAAPSVFIFPPSDEQLKSGTASVVCLLNNFYPREAKVQWKVDNALQSGNSQESVTEQDSKDSTYSLSSTLTLSKADYEKHKVYACEVTHQGLSSPVTKSFNRGEC | 97.6 % of control | 104 % of control
6 | GpH7-A5/GpH7-B3 variant L328_09D/GpL16-k0 (antibody, human IgG1, kappa, He Ab: mutation in the GpH7-B3 H chain only; also called He Ab) heavy 1: not shown heavy 2: not shown light: DIVMTQSPLSLPVTPGEPASISCQASESLVHSNRNTYLHWYLQKPGQSPQLLIYKVSNRFSGVPDRFSGSGSGTDFTLKISRVEAEDVGVYYCSQNTHVPPTFGQGTKVEIERTVAAPSVFIFPPSDEQLKSGTASVVCLLNNFYPREAKVQWKVDNALQSGNSQESVTEQDSKDSTYSLSSTLTLSKADYEKHKVYACEVTHQGLSSPVTKSFNRGEC | 47.8 % of control | 199 % of control
7 | GpH7-A5/GpH7-B3 variant D265_20W/GpL16-k0 (antibody, human IgG1, kappa, He Ab: mutation in the GpH7-B3 H chain only; also called He Ab) heavy 1: not shown heavy 2: not shown light: DIVMTQSPLSLPVTPGEPASISCQASESLVHSNRNTYLHWYLQKPGQSPQLLIYKVSNRFSGVPDRFSGSGSGTDFTLKISRVEAEDVGVYYCSQNTHVPPTFGQGTKVEIERTVAAPSVFIFPPSDEQLKSGTASVVCLLNNFYPREAKVQWKVDNALQSGNSQESVTEQDSKDSTYSLSSTLTLSKADYEKHKVYACEVTHQGLSSPVTKSFNRGEC | -0.5 % of control | 1.1 % of control
8 | GpH7-A5/GpH7-B3 variant K334_12R/GpL16-k0 (antibody, human IgG1, kappa, He Ab: mutation in the GpH7-B3 H chain only; also called He Ab) heavy 1: not shown heavy 2: not shown light: DIVMTQSPLSLPVTPGEPASISCQASESLVHSNRNTYLHWYLQKPGQSPQLLIYKVSNRFSGVPDRFSGSGSGTDFTLKISRVEAEDVGVYYCSQNTHVPPTFGQGTKVEIERTVAAPSVFIFPPSDEQLKSGTASVVCLLNNFYPREAKVQWKVDNALQSGNSQESVTEQDSKDSTYSLSSTLTLSKADYEKHKVYACEVTHQGLSSPVTKSFNRGEC | 90.8 % of control | 111 % of control
9 | GpH7-A5/GpH7-B3 variant L328_14T/GpL16-k0 (antibody, human IgG1, kappa, He Ab: mutation in the GpH7-B3 H chain only; also called He Ab) heavy 1: not shown heavy 2: not shown light: DIVMTQSPLSLPVTPGEPASISCQASESLVHSNRNTYLHWYLQKPGQSPQLLIYKVSNRFSGVPDRFSGSGSGTDFTLKISRVEAEDVGVYYCSQNTHVPPTFGQGTKVEIERTVAAPSVFIFPPSDEQLKSGTASVVCLLNNFYPREAKVQWKVDNALQSGNSQESVTEQDSKDSTYSLSSTLTLSKADYEKHKVYACEVTHQGLSSPVTKSFNRGEC | 75.3 % of control | 141 % of control
10 | GpH7-A5/GpH7-B3 variant L328_15Y/GpL16-k0 (antibody, human IgG1, kappa, He Ab: mutation in the GpH7-B3 H chain only; also called He Ab) heavy 1: not shown heavy 2: not shown light: DIVMTQSPLSLPVTPGEPASISCQASESLVHSNRNTYLHWYLQKPGQSPQLLIYKVSNRFSGVPDRFSGSGSGTDFTLKISRVEAEDVGVYYCSQNTHVPPTFGQGTKVEIERTVAAPSVFIFPPSDEQLKSGTASVVCLLNNFYPREAKVQWKVDNALQSGNSQESVTEQDSKDSTYSLSSTLTLSKADYEKHKVYACEVTHQGLSSPVTKSFNRGEC | 68.3 % of control | 193 % of control
11 | GpH7-A5/GpH7-B3 variant L328_04F/GpL16-k0 (antibody, human IgG1, kappa, He Ab: mutation in the GpH7-B3 H chain only; also called He Ab) heavy 1: not shown heavy 2: not shown light: DIVMTQSPLSLPVTPGEPASISCQASESLVHSNRNTYLHWYLQKPGQSPQLLIYKVSNRFSGVPDRFSGSGSGTDFTLKISRVEAEDVGVYYCSQNTHVPPTFGQGTKVEIERTVAAPSVFIFPPSDEQLKSGTASVVCLLNNFYPREAKVQWKVDNALQSGNSQESVTEQDSKDSTYSLSSTLTLSKADYEKHKVYACEVTHQGLSSPVTKSFNRGEC | 79.3 % of control | 219 % of control
12 | GpH7-A5/GpH7-B3 variant L328_19Q/GpL16-k0 (antibody, human IgG1, kappa, He Ab: mutation in the GpH7-B3 H chain only; also called He Ab) heavy 1: not shown heavy 2: not shown light: DIVMTQSPLSLPVTPGEPASISCQASESLVHSNRNTYLHWYLQKPGQSPQLLIYKVSNRFSGVPDRFSGSGSGTDFTLKISRVEAEDVGVYYCSQNTHVPPTFGQGTKVEIERTVAAPSVFIFPPSDEQLKSGTASVVCLLNNFYPREAKVQWKVDNALQSGNSQESVTEQDSKDSTYSLSSTLTLSKADYEKHKVYACEVTHQGLSSPVTKSFNRGEC | 81.1 % of control | 105 % of control
13 | GpH7-A5/GpH7-B3 variant L328_13S/GpL16-k0 (antibody, human IgG1, kappa, He Ab: mutation in the GpH7-B3 H chain only; also called He Ab) heavy 1: not shown heavy 2: not shown light: DIVMTQSPLSLPVTPGEPASISCQASESLVHSNRNTYLHWYLQKPGQSPQLLIYKVSNRFSGVPDRFSGSGSGTDFTLKISRVEAEDVGVYYCSQNTHVPPTFGQGTKVEIERTVAAPSVFIFPPSDEQLKSGTASVVCLLNNFYPREAKVQWKVDNALQSGNSQESVTEQDSKDSTYSLSSTLTLSKADYEKHKVYACEVTHQGLSSPVTKSFNRGEC | 71.7 % of control | 149 % of control
14 | GpH7-A5/GpH7-B3 variant L328_06M/GpL16-k0 (antibody, human IgG1, kappa, He Ab: mutation in the GpH7-B3 H chain only; also called He Ab) heavy 1: not shown heavy 2: not shown light: DIVMTQSPLSLPVTPGEPASISCQASESLVHSNRNTYLHWYLQKPGQSPQLLIYKVSNRFSGVPDRFSGSGSGTDFTLKISRVEAEDVGVYYCSQNTHVPPTFGQGTKVEIERTVAAPSVFIFPPSDEQLKSGTASVVCLLNNFYPREAKVQWKVDNALQSGNSQESVTEQDSKDSTYSLSSTLTLSKADYEKHKVYACEVTHQGLSSPVTKSFNRGEC | 78.6 % of control | 142 % of control
15 | GpH7-A5/GpH7-B3 variant D265_16H/GpL16-k0 (antibody, human IgG1, kappa, He Ab: mutation in the GpH7-B3 H chain only; also called He Ab) heavy 1: not shown heavy 2: not shown light: DIVMTQSPLSLPVTPGEPASISCQASESLVHSNRNTYLHWYLQKPGQSPQLLIYKVSNRFSGVPDRFSGSGSGTDFTLKISRVEAEDVGVYYCSQNTHVPPTFGQGTKVEIERTVAAPSVFIFPPSDEQLKSGTASVVCLLNNFYPREAKVQWKVDNALQSGNSQESVTEQDSKDSTYSLSSTLTLSKADYEKHKVYACEVTHQGLSSPVTKSFNRGEC | 13.6 % of control | 38.3 % of control
16 | GpH7-A5/GpH7-B3 variant D265_18N/GpL16-k0 (antibody, human IgG1, kappa, He Ab: mutation in the GpH7-B3 H chain only; also called He Ab) heavy 1: not shown heavy 2: not shown light: DIVMTQSPLSLPVTPGEPASISCQASESLVHSNRNTYLHWYLQKPGQSPQLLIYKVSNRFSGVPDRFSGSGSGTDFTLKISRVEAEDVGVYYCSQNTHVPPTFGQGTKVEIERTVAAPSVFIFPPSDEQLKSGTASVVCLLNNFYPREAKVQWKVDNALQSGNSQESVTEQDSKDSTYSLSSTLTLSKADYEKHKVYACEVTHQGLSSPVTKSFNRGEC | 4.6 % of control | 6.1 % of control
17 | GpH7-A5/GpH7-B3 variant L328_20W/GpL16-k0 (antibody, human IgG1, kappa, He Ab: mutation in the GpH7-B3 H chain only; also called He Ab) heavy 1: not shown heavy 2: not shown light: DIVMTQSPLSLPVTPGEPASISCQASESLVHSNRNTYLHWYLQKPGQSPQLLIYKVSNRFSGVPDRFSGSGSGTDFTLKISRVEAEDVGVYYCSQNTHVPPTFGQGTKVEIERTVAAPSVFIFPPSDEQLKSGTASVVCLLNNFYPREAKVQWKVDNALQSGNSQESVTEQDSKDSTYSLSSTLTLSKADYEKHKVYACEVTHQGLSSPVTKSFNRGEC | 37.4 % of control | 235 % of control
18 | GpH7-A5/GpH7-B3 variant L328_03V/GpL16-k0 (antibody, human IgG1, kappa, He Ab: mutation in the GpH7-B3 H chain only; also called He Ab) heavy 1: not shown heavy 2: not shown light: DIVMTQSPLSLPVTPGEPASISCQASESLVHSNRNTYLHWYLQKPGQSPQLLIYKVSNRFSGVPDRFSGSGSGTDFTLKISRVEAEDVGVYYCSQNTHVPPTFGQGTKVEIERTVAAPSVFIFPPSDEQLKSGTASVVCLLNNFYPREAKVQWKVDNALQSGNSQESVTEQDSKDSTYSLSSTLTLSKADYEKHKVYACEVTHQGLSSPVTKSFNRGEC | 78.7 % of control | 126 % of control

Source: patent publication US20180155451A1 (published 2018)
